Measured values: publication PMC10806991, “Substrate promiscuity of Dicer toward precursors of the let-7 family and their 3′-end modifications”

B1: pre-let-7a-3 (7a3) (structured_RNA)
RNA: UGAGGUAGUAGGUUGUAUAGUUUGGGGCUCUGCCCUGCUAUGGGAUAACUAUACAAUCUACUGUCUUUC
modifications: 5'-monophosphate; 3'-OH
B2: pre-miR-98 (m98) (structured_RNA)
RNA: UGAGGUAGUAAGUUGUAUUGUUGUGGGGUAGGGAUAUUAGGCCCCAAUUAGAAGAUAACUAUACAACUUACUACUUUCC
modifications: 5'-monophosphate; 3'-OH
B3: pre-let-7a-1 (7a1) (structured_RNA)
RNA: UGAGGUAGUAGGUUGUAUAGUUUUAGGGUCACACCCACCACUGGGAGAUAACUAUACAAUCUACUGUCUUUC
modifications: 5'-monophosphate; 3'-OH
B4: pre-let-7f-2 (7f2) (structured_RNA)
RNA: UGAGGUAGUAGAUUGUAUAGUUUUAGGGUCAUACCCCAUCUUGGAGAUAACUAUACAGUCUACUGUCUUUC
modifications: 5'-monophosphate; 3'-OH
B5: pre-let-7g (7g) (structured_RNA)
RNA: UGAGGUAGUAGUUUGUACAGUUUGAGGGUCUAUGAUACCACCCGGUACAGGAGAUAACUGUACAGGCCACUGCCUUGC
modifications: 5'-monophosphate; 3'-OH
B6: pre-let-7i (7i) (structured_RNA)
RNA: UGAGGUAGUAGUUUGUGCUGUUGGUCGGGUUGUGACAUUGCCCGCUGUGGAGAUAACUGCGCAAGCUACUGCCUUGC
modifications: 5'-monophosphate; 3'-OH
B7: pre-let-7d (7d) (structured_RNA)
RNA: AGAGGUAGUAGGUUGCAUAGUUUUAGGGCAGGGAUUUUGCCCACAAGGAGGUAACUAUACGACCUGCUGCCUUUC
modifications: 5'-monophosphate; 3'-OH
B8: pre-let-7b (7b) (structured_RNA)
RNA: UGAGGUAGUAGGUUGUGUGGUUUCAGGGCAGUGAUGUUGCCCCUCGGAAGAUAACUAUACAACCUACUGCCUUCC
modifications: 5'-monophosphate; 3'-OH
B9: pre-let-7a-2 (7a2) (structured_RNA)
RNA: UGAGGUAGUAGGUUGUAUAGUUUAGAAUUACAUCAAGGGAGAUAACUGUACAGCCUCCUAGCUUUCC
modifications: 5'-monophosphate; 3'-OH
B10: pre-let-7c (7c) (structured_RNA)
RNA: UGAGGUAGUAGGUUGUAUGGUUUAGAGUUACACCCUGGGAGUUAACUGUACAACCUUCUAGCUUUCC
modifications: 5'-monophosphate; 3'-OH
B11: pre-let-7e (7e) (structured_RNA)
RNA: UGAGGUAGGAGGUUGUAUAGUUGAGGAGGACACCCAAGGAGAUCACUAUACGGCCUCCUAGCUUUCC
modifications: 5'-monophosphate; 3'-OH
B12: pre-miR-202 (m202) (structured_RNA)
RNA: UUCCUAUGCAUAUACUUCUUUGAGGAUCUGGCCUAAAGAGGUAUAGGGCAUGGGAAAA
modifications: 5'-monophosphate; 3'-OH
B13: pre-let-7d mono-U (structured_RNA)
RNA: AGAGGUAGUAGGUUGCAUAGUUUUAGGGCAGGGAUUUUGCCCACAAGGAGGUAACUAUACGACCUGCUGCCUUUCU
modifications: 5'-monophosphate; 3'-OH; one extra 3' U
B14: pre-let-7g mono-U (structured_RNA)
RNA: UGAGGUAGUAGUUUGUACAGUUUGAGGGUCUAUGAUACCACCCGGUACAGGAGAUAACUGUACAGGCCACUGCCUUGCU
modifications: 5'-monophosphate; 3'-OH; one extra 3' U
B15: pre-let-7a-1 mono-U (structured_RNA)
RNA: UGAGGUAGUAGGUUGUAUAGUUUUAGGGUCACACCCACCACUGGGAGAUAACUAUACAAUCUACUGUCUUUCU
modifications: 5'-monophosphate; 3'-OH; one extra 3' U
B16: pre-let-7b mono-U (structured_RNA)
RNA: UGAGGUAGUAGGUUGUGUGGUUUCAGGGCAGUGAUGUUGCCCCUCGGAAGAUAACUAUACAACCUACUGCCUUCCU
modifications: 5'-monophosphate; 3'-OH; one extra 3' U
B17: pre-miR-98 mono-U (structured_RNA)
RNA: UGAGGUAGUAAGUUGUAUUGUUGUGGGGUAGGGAUAUUAGGCCCCAAUUAGAAGAUAACUAUACAACUUACUACUUUCCU
modifications: 5'-monophosphate; 3'-OH; one extra 3' U

The molecules below were run against T1, ciDicer (catalytically inactive human Dicer) (Homo sapiens, UniProt Q9UPY3 1-1922, D1320A;D1709A) (assay: EMSA; EMSA: 50 mM Tris pH 7.6, 50 mM NaCl, 10% glycerol, 0.05% NP-40, 2 mM DTT, 4 °C, 30 min, 2 pM 32P-RNA; 4-15% native PAGE in Tris-glycine; RNA heated 95 °C and snap-cooled; no Mg2+ added to DB buffer). Conditions: protein: recombinant; label: 5'-32P; hairpin, 1-nt 3' overhang (Group II).
T1 sequence (Q9UPY3 whole entry D1320A/D1709A): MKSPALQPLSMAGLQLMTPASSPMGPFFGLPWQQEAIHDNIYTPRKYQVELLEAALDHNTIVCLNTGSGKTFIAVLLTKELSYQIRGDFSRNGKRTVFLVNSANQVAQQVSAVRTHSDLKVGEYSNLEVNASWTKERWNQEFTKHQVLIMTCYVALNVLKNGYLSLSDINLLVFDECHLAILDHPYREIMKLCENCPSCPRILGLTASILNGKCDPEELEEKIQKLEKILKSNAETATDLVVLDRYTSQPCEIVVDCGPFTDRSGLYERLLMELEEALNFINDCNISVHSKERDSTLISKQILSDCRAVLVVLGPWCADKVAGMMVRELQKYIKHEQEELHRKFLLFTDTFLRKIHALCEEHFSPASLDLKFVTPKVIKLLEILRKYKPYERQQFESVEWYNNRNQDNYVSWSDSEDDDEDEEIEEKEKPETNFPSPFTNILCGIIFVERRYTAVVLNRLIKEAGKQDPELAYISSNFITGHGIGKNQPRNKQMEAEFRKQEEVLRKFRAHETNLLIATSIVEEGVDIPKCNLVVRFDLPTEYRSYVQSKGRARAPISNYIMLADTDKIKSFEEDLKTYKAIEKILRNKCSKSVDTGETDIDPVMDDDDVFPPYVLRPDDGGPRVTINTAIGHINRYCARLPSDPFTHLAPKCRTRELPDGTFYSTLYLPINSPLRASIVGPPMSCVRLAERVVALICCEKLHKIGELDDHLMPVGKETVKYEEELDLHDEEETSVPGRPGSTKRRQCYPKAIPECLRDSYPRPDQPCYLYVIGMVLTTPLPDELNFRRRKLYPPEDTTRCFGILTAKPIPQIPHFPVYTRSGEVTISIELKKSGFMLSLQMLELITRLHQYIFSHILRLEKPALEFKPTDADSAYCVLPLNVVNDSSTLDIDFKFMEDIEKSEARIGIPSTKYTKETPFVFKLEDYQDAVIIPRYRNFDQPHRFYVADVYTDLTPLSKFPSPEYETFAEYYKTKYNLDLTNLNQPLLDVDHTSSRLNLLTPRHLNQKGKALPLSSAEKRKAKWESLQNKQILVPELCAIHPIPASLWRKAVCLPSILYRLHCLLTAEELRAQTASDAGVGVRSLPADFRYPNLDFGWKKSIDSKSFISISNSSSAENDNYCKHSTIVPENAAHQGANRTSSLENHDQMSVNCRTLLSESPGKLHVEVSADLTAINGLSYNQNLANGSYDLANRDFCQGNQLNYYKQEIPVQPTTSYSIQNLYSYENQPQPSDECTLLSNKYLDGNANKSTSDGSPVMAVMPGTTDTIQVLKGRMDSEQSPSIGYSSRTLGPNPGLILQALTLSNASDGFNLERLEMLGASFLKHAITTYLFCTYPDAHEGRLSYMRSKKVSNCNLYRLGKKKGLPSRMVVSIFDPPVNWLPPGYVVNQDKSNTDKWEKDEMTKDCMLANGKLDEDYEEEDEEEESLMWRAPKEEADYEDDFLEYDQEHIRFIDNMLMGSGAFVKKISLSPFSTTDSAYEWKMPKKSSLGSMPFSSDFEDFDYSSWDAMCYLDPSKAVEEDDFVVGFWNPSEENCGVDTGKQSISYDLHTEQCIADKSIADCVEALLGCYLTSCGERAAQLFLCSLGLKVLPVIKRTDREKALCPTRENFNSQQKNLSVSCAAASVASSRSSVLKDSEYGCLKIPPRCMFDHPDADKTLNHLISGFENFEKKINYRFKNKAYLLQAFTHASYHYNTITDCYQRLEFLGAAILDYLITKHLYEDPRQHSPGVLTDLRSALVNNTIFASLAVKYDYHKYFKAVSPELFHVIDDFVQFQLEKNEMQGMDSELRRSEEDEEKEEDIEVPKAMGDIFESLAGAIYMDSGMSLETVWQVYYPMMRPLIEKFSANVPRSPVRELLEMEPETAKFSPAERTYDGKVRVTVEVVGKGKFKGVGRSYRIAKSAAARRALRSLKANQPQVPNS
Molecule B1 has a Kd of 16 ± 5 nM.
Molecule B2 has a Kd of 12 ± 7 nM.
B3 showed a Kd of 14 ± 3 nM.
For B4, the Kd was 17 ± 4 nM.
In the case of B5, the Kd is reported as 12 ± 2 nM.
In the case of B6, the Kd is reported as 17 ± 5 nM.
In the case of B7, the Kd is reported as 16 ± 3 nM.
Molecule B8 has a Kd of 13 ± 1 nM.

Same assay, conditions: protein: recombinant; label: 5'-32P; hairpin, 2-nt 3' overhang (Group I)
B9 gave a Kd of 12 ± 5 nM.
Molecule B10 has a Kd of 13 ± 4 nM.
For B11, the Kd was 12 ± 2 nM.

Same assay, conditions: protein: recombinant; label: 5'-32P; hairpin, 14-nt apical loop, 2-nt 3' overhang (Group I)
For B12, the Kd was 7 ± 2 nM.

What follows are molecules tested against T1, ciDicer (catalytically inactive human …) (assay: EMSA; range over five mono-U RNAs; individual value only in figure; EMSA: 50 mM Tris pH 7.6, 50 mM NaCl, 10% glycerol, 0.05% NP-40, 2 mM DTT, 4 °C, 30 min, 2 pM 32P-RNA; 4-15% native PAGE in Tris-glycine; RNA heated 95 °C and snap-cooled; no Mg2+ added to DB buffer). Conditions: protein: recombinant; label: 5'-32P; hairpin, 2-nt 3' overhang.
B13 showed a Kd of ~19 nM.
With B14 the Kd was ~19 nM.
In the case of B15, the Kd is reported as ~19 nM.
B16 gave a Kd of ~19 nM.
Work on B17 yielded a Kd of ~19 nM.

These molecules were tested against ciDicer (catalytically inactive human Dicer) D1320A;D1709A (Homo sapiens) (UniProt Q9UPY3) (assay: EMSA). Conditions: 5'-monophosphate; 3'-OH; EMSA: 50 mM Tris pH 7.6, 50 mM NaCl, 10% glycerol, 0.05% NP-40, 2 mM DTT, 4 °C, 30 min, 2 pM 32P-RNA; 4-15% native PAGE in …; RNA heated 95 °C and sn.
Sequence of ciDicer (catalytically inactive human Dicer) D1320A;D1709A (Homo sapiens) (Q9UPY3 whole entry D1320A/D1709A): as above
Work on pre-let-7f-1 (7f1) yielded a Kd of 10 nM.
